Measured values published in patent US20230137032A1 (GlaxoSmithKline, published 2023).

T1: human BCMA expressed on cells (human, UniProt Q02223 1-184)
T1 construct: whole, on cells; also called human BCMA HEK293; ARH77-hBCMA 10B5 BCMA expressing transfectant cells
T1 sequence (looked up): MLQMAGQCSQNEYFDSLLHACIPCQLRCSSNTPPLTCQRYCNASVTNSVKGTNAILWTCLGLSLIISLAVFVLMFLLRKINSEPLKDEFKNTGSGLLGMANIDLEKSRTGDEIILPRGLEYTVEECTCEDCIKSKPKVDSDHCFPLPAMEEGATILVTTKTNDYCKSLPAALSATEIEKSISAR


Assays:
[1] = target: T2, recombinant human BCMA, in house material (human, UniProt Q02223 4-53, limits assumed); assay: ProteOn SPR run 2, antibody captured on Protein A, 25C
T2 construct: also called Human in house BCMA; In house human BCMA

[2] = target: T3, recombinant cyno BCMA, in house material (cyno, UniProt A0A2K5UD97 4-52); assay: as above
T3 construct: also called Cyno in house BCMA
T3 sequence (A0A2K5UD97 entry or part of it): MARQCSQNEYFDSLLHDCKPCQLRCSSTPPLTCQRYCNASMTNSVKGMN

[3] = target: T1, human BCMA expressed on cells; assay: FACS on H929 multiple myeloma cells, PE anti-mouse IgG
Procedure: Cells were incubated for 20 mins at room temperature (RT) and then washed with FACS buffer (PBS+0.5% BSA+0.1% sodium azide) to remove unbound antibody. Cells were incubated with a secondary PE labelled anti-mouse IgG antibody for 15 minutes at RT and then washed with FACS buffer to remove unbound antibody. Cells were analysed by FACS to detect antibody bound to the cells.

| Binder | binding result [1] | binding result [2] | binding result [3] |
| --- | --- | --- | --- |
| S307118G03 H5L1 (antibody, human IgG1, kappa, V domains shown, Humanised, human IgG1 kappa; also called S307118G03 humanised H5L1) VH: QVQLVQSGAEVKKPGSSVKVSCKASGYTFTDYYMKWVRQAPGQGLEWIGEIYPNNGGITYNQKFKGRATLTVDKSTSTAYMELSSLRSEDTAVYYCANGYEFDYWGQGTLVTVSS VL: DIQMTQSPSSLSASVGDRVTITCSASQGISNYLNWYQQKPGKAPKLLIYYTSSLHSGVPSRFSGSGSGTDYTLTISSLQPEDFATYYCQQYSKLPWTFGQGTKLEIKR | no binding (tested: up to 256 nM) | no binding |  |
| murine S307118G03 (antibody, IgG2a, V domains shown, Murine hybridoma antibody; also called S307118G03 (murine parental mAb)) VH: EVQLQQSGPELVKPGASVKISCKASGYTFTDYYMKWVKQSHGKSLEWIGEIYPNNGGITYNQKFKGKATLTVDKSSSTAYMELRSLTSEDSAVYYCANGYEFVYWGQGTLVTVSA VL: DIQMTQTASSLSASLGDRVTISCSASQGISNYLNWYQQKPDGTVKLLIYYTSSLHSGVPSRFSGSGSGTDYSLTISNLEPEDIATYYCQQYSKLPWTFGGGTKLEIKR |  |  | binds |
